Reference: patent US4770993A, “Hybridoma tumor cell lines and their monoclonal antibodies to thaumatin” (Beatrice Companies, Inc., priority 1985, dated 1988)

Assays:
[1] = tested on: monoclonal antibody of clone No. 29; assay: Competition assay between native plant thaumatin I and monellin, clone No. 29 antibody; type: binding, mouse
[2] = tested on: clone No. 3 monoclonal antibodies; assay: Competition ELISA, inhibition of binding of clone No. 3 monoclonal antibodies to native plant thaumatin I; parameters: species or system mouse
Protocol: (§1) The following procedure is utilized to carry out enzyme linked immunosorbance assays (ELISA) for thaumatin. All reactions are carried out at room temperature and the ELISA plate is covered with Saran brand plastic wrap at all stages and is incubated within a humidified chamber. ELISA plates are coated by placing 10 ng of thaumatin I purified according to the procedure of example 1 in 50 μl of 25 mM NaHCO3 (pH 9.2). This is incubated at room temperature for 2 hours. The plates are washed twice with 400 μl of PBS (50 mM potassium phosphate, 150 mM NaCl, (pH 7.4) and Tween 20 (0.05%)) (a detergent manufactured by Sigma Chemical Co.) and then twice with 400 μl water. The plates are then coated with 200 μl of 1% bovine serum albumin (BSA) in PBS-Tween 20 (0.025% solution) for 2 hours at room temperature. The plates are again washed twice with 400 μl of the PBS-Tween solution and twice with water.
(§2) Fifty μl of media from the culture to be tested is then added. Normal, unfused myeloma cell (Sp2-0/Ag-14) media is used as the negative control. Mouse serum at a dilution of 1:500 or greater is used as a positive control. The media is then incubated for at least four hours at room temperature. The plates are then again washed twice with 400 μl of PBS-Tween 20 solution and then twice with water. Fifty μl of a 1:100 dilution of rabbit anti-mouse light K and λ chain immunoglobulin is added and this is incubated for 2 hours at room temperature. The plates are again washed twice with 400 μl of 0.5% PBS-Tween 20 solution and twice with water. Fifty μl of conjugated goat anti-rabbit IgG peroxidase at a 1:1000 dilution is then added and incubated for 1 hour at room temperature. The plates are once more washed twice with 400 μl PBS-Tween 20 solution and twice with water.
(§3) Fifty μl of O-phenylenediamine dihydrochloride (OPD) solution containing 0.01% of H2 O2 is added to each well (OPD solution comprises 18 mg of OPD per 30 ml of staining buffer which itself comprises 4.86 ml of 0.5 M citric acid and 10.28 ml of 0.5 M Na2 HPO4 diluted up to 100 ml with water). The H2 O2 should be added to the OPD only seconds before application. This mixture is then incubated for 5-15 minutes at room temperature until the reaction is stopped by addition of 50 μl of 4N H2 SO4. The optical density of the wells is then measured at 490 nm by a Bio-Tek ELISA reader.
In this example, the inhibition effect of recombinant yeast produced thaumatin analogue-glutathione adduct and of performic acid oxidized plant thaumatin on binding of clone No. 3 monoclonal antibodies to native plant thaumatin I was evaluated. ELISA plates were coated with 10 ng of native plant thaumatin I per well. The antibodies were preincubated with control buffer or with various amounts of test materials for 2 hours and were added to the plates. The plates were then developed according to the ELISA procedure of Example 3.

[3] = tested on: clone No. 29 monoclonal antibodies; assay: Competition ELISA, inhibition of binding of clone No. 29 monoclonal antibodies to native plant thaumatin I; parameters: species or system mouse
Protocol: as §1
as §2, with “Mouse serum at a dilution of 1:500 or greater is used as a positive control.” left out
as §3
In this example inhibition effect of recombinant yeast produced thaumatin analogue-glutathione adduct and of performic acid oxidized thaumatin on binding of clone No. 29 monoclonal antibodies to native plant thaumatin I was evaluated. ELISA plates were coated with 10 ng of native plant thaumatin I per well. The antibodies were preincubated with control buffer or with various amounts of test materials for 2 hours and were added to the plates. The plates were then developed according to the ELISA procedure of Example 3.

[4] = cited from earlier work; for taste responses: in words
[5] = in words; cited from earlier work

Row | Molecule | Inhibition (%) ([1]; amount of protein 10 ng) | Inhibition (%) ([1]; amount of protein 50 ng) | Inhibition (%) ([1]; amount of protein 100 ng) | Inhibition (%) ([1]; amount of protein 1 μg) | Inhibition (%) ([1]; amount of protein 10 μg) | Inhibition (%) ([1]; amount of protein 100 μg) | Inhibition of Binding (%) ([2]; addition 100 ng) | Inhibition of Binding (%) ([2]; addition 200 ng) | Inhibition of Binding (%) ([2]; addition 500 ng) | Inhibition of Binding (%) ([2]; addition 1 μg) | Inhibition of Binding (%) ([2]; addition 2 μg) | Inhibition of Binding (%) ([3]; addition 100 ng) | Inhibition of Binding (%) ([3]; addition 200 ng) | Inhibition of Binding (%) ([3]; addition 500 ng) | Inhibition of Binding (%) ([3]; addition 1 μg) | Inhibition of Binding (%) ([3]; addition 2 μg) | taste responses [4] | cariogenicity [5] | toxicity [5] | also measured
1 | Monellin | not detectable | not detectable | not detectable | 15 | 60 | 98 | – | – | – | – | – | – | – | – | – | – | – | – | – | concentration inhibiting binding relative to thaumatin ([1]; monellin versus thaumatin): ten fold greater
2 | Thaumatin I: plant thaumatin I (obtained from Sigma Chemical Co.), sweet-tasting protein of Thaumatococcus daniellii, purified on an ion exchange column (protein, UniProt P02883 23-229, looked up) Thaumatin I: ATFEIVNRCSYTVWAAASKGDAALDAGGRQLNSGESWTINVEPGTNGGKIWARTDCYFDDSGSGICKTGDCGGLLRCKRFGRPPTTLAEFSLNQYGKDYIDISNIKGFNVPMDFSPTTRGCRGVRCAADIVGQCPAKLKAPGGGCNDACTVFQTSEYCCTTGKCGPTEYSRFFKRLCPDAFSYVLDKPTTVTCPGSSNYRVTFCPTA | not detectable | not detectable | 25% | 62.5 | 94 | 95 | 16 | 30 | 50 | 60 | 80 | 5 | 30 | 51 | 65 | 80 | elicit profound taste responses | non-cariogenic | non-toxic | sweetness relative to sucrose ([4]; on a weight basis): about 5000 times sweeter than sucrose
3 | Thaumatin II: plant thaumatin II, sweet-tasting protein of Thaumatococcus daniellii (protein, UniProt P02884 23-229, looked up) Thaumatin II: ATFEIVNRCSYTVWAAASKGDAALDAGGRQLNSGESWTINVEPGTKGGKIWARTDCYFDDSGRGICRTGDCGGLLQCKRFGRPPTTLAEFSLNQYGKDYIDISNIKGFNVPMDFSPTTRGCRGVRCAADIVGQCPAKLKAPGGGCNDACTVFQTSEYCCTTGKCGPTEYSRFFKRLCPDAFSYVLDKPTTVTCPGSSNYRVTFCPTA | – | – | – | – | – | – | – | – | – | – | – | – | – | – | – | – | elicit profound taste responses | non-cariogenic | non-toxic | –
4 | Performic acid oxidized thaumatin: denatured thaumatin I prepared by incubation of thaumatin I in a chilled performic acid solution (protein, UniProt P02883 23-229, looked up, performic acid oxidized, denatured thaumatin I prepared by incubation of thaumatin I in a chilled performic acid solution) Thaumatin I: ATFEIVNRCSYTVWAAASKGDAALDAGGRQLNSGESWTINVEPGTNGGKIWARTDCYFDDSGSGICKTGDCGGLLRCKRFGRPPTTLAEFSLNQYGKDYIDISNIKGFNVPMDFSPTTRGCRGVRCAADIVGQCPAKLKAPGGGCNDACTVFQTSEYCCTTGKCGPTEYSRFFKRLCPDAFSYVLDKPTTVTCPGSSNYRVTFCPTA | – | – | – | – | – | – | 0 | 0 | 0 | 0 | 6 | 8 | 29.5 | 49 | 64 | 82 | – | – | – | inhibition in the assay ([2]; preincubation with clone No. 3 antibody, in words): little or no inhibition; competition with native plant thaumatin I for clone No. 29 antibody ([3]; in words): compete effectively
